Patent publication US12448430B2 (dated 2025)

T1: Wilms tumor protein 1 (WT1) peptide on HLA-A*02:01 (human)
T1 peptide: VLDFAPPGA

B1: WT137-45 TCR15.1 (TCR, V domains shown)
Valpha: GQNIDQPTEMTATEGAIVQINCTYQTSGFNGLFWYQQHAGEAPTFLSYNVLDGLEEKGRFSSFLSRSKGYSYLLLKELQMKDSASYLCAVRGINDYKLSFGAGTTVTVRA
Vbeta: DGGITQSPKYLFRKEGQNVTLSCEQNLNHDAMYWYRQDPGQGLRLIYYSQIVNDFQKGDIAEGYSVSREKKESFPLTVTSAQKNPTAFYLCASSRDREQESPLHFGNGTRLTVT
B2: WT137-45 TCR10.1 (TCR, V domains shown)
Valpha: KQEVTQIPAALSVPEGENLVLNCSFTDSAIYNLQWFRQDPGKGLTSLLLIQSSQREQTSGRLNASLDKSSGRSTLYIAASQPGDSATYLCAVKETSGSRLTFGEGTQLTVNP
Vbeta: GAGVSQSPRYKVTKRGQDVALRCDPISGHVSLYWYRQALGQGPEFLTYFNYEAQQDKSGLPNDRFSAERPEGSISTLTIQRTEQRDSAMYRCASSLTGSYEQYFGPGTRLTVT

Assays:
[1] = molecular target: T1, Wilms tumor protein 1 (WT1) peptide on …; experiment: killing
[2] = molecular target: T1, Wilms tumor protein 1 (WT1) peptide on …; experiment: multimer staining

| Binder | binding result [1] | binding result [2] |
| --- | --- | --- |
| B1 | recognises |  |
| B2 |  | recognises |
